Experimental data reported in patent publication US20040146964A1 (ISIS INNOVATION, published 2004).
Changes are numbered by the printed parent chain. Names may count otherwise. Where no end group is shown, it is not given here. [ ]: non-standard residue; d: D form. Hyp = O=C(O)[C@@H]1C[C@@H](O)CN1

Legend:
[1] = target: T1, C. elegans HIF P621G mutant (C. elegans, UniProt G5EGD2 1-719); assay: anti-HA co-IP of IVTT products
T1 construct: also called ceHIF Pro621-Gly; pcDNA1cehif.P621G
T1 sequence: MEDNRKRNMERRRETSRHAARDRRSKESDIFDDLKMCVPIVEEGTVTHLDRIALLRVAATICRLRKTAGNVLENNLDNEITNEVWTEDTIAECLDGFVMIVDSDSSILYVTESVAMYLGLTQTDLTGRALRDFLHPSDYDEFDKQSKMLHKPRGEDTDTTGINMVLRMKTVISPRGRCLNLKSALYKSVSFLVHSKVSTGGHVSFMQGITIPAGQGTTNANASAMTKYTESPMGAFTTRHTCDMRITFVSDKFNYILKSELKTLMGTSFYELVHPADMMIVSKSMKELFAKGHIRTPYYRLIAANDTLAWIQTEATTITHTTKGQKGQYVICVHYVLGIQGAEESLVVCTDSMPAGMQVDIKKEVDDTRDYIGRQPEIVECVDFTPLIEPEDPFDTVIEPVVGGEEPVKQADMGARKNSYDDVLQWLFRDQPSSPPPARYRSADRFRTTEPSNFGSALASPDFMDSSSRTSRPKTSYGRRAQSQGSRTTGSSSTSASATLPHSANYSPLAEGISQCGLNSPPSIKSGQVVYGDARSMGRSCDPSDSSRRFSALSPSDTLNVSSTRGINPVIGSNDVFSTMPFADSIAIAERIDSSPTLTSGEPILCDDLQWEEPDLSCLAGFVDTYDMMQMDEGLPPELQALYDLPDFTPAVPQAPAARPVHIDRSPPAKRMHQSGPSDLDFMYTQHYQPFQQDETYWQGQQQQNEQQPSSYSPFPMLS
Experimental: (§1) For interaction assays 1 μl of each programmed lysate was mixed in EBC buffer at 4° C. for 1 hr before anti-HA immunoprecipitation as described in Cockman et al. Pretreatment of ceHIF with worm extract was for 30 min at 25° C. with 10 μI of extract derived by hypotonic extraction of a worm homogenate in 20 mM Tris pH7.5, 5 mMKCl, 1.5 MgCl2, 1 mMDTT.

[2] = target: T2, C. elegans HIF-α homologue, wild type (C. elegans, UniProt G5EGD2 1-719); assay: anti-HA co-IP of reticulocyte IVTTs, ceHIF pre-treated with worm extract
T2 construct: 35S-labelled reticulocyte IVTT from pcDNA1cehif; also called ceHIF; HIF-1 (C. elegans)
T2 sequence: T1 sequence with G621P
Experimental: as §1

[3] = target: T3, VHL E3 ubiquitin ligase complex containing HA tagged human pVHL (human, UniProt P40337 1-213); assay: VHL E3 interaction assay with 35S-labelled IVTT product
T3 construct: also called VHL E3 ligase; 786-0/VHL cell extract

[4] = target: T4, mutant (Pro86His) pVHL (human, UniProt P40337 1-213); assay: biotinylated peptide, after cell extract, capture on streptavidin beads
T4 construct: also called mutant pVHL
Experimental: (§2) The 19:WT polypeptide was either incubated with cell extract before the binding assay or was untreated.

[5] = target: T4, mutant (Pro86His) pVHL; assay: biotinylated peptide capture on streptavidin beads
Experimental: as §2

T4 sequence (P40337 whole entry P86H): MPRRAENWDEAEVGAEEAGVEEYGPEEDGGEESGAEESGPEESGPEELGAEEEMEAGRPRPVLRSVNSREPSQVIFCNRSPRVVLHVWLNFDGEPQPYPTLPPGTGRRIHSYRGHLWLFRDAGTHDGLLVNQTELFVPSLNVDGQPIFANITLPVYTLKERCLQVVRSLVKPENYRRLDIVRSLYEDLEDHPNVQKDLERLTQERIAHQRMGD
T3 sequence (P40337 whole entry, one chain of several): as the sequence (P40337 whole entry P86H) above, with H86P counted along it

B1: c-terminal HA tagged ceVHL (other, not shown: small tags and cut ends)
chain: MSDGSMDDDGRLFPDLGSSTHDNREIRVRFLNRCAYPVDVFWLNPSKQPTKYGTLAQKKYLDIKTFKDHPWVARRSFDGCKVLVNEKEVFWPEPAPRMNLIVRNHCVITMKVQSLREIAGRSFLRHNPTEVPNKIKGLPRELQFEVKHFLDRKQEYSEIVCRSIPPPGPQRPQQ
notes: also called ceVHL-HA
- binding result [1]: no binding
- binding result [2]: binds

Binder: PFSTQDTDLDLEMLAGYIPMDDDFQLRSFDQLSP (other) [tat-CODD proline mutant (HIF-1α 549-582/P564G)]
- binding result [3]: no binding

Binder: DLDLEMLAPYIPMDDDFQL (also: biotinylated version used in pVHL capture assays, also called 19:WT; 19 WT) [synthetic polypeptide of HIF-1α residues 556-574, unmodified]
- binding result [4]: no binding

Binder: DLDLEMLA[Hyp]YIPMDDDFQL (also: biotinylated version used in pVHL capture assays, also called 19:Pro564Hyp; B19Hyp)
- binding result [5]: no binding

B2: tat-NODD proline mutant (HIF-1α 343-417/P402A) (other)
chain: SGIIQHDLIFSLQQTECVLKPVESSDMKMTQLFTKVESEDTSSLFDKLKKEPDALTLLAAAAGDTIISLDFGSND
- binding result [3]: no binding
